Source: the supplement of paper PMC12764529
± gives the half width of the 95% confidence interval.

Experiment: folding stability dG unfold from trypsin proteolysis; higher = more stable
In short: (§1)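 K50 was inferred by Bayesian fitting of sequencing counts obtained after protease digestion of designed mini-proteins. Unfolding free energy was derived by comparison with a sequence-predicted unfolded-state K50 and a shared folded-state K50, for each protease or both combined. The mini-proteins were under 80 residues, had no cysteine, were carried in a PA-tagged cDNA display construct, and were kept only if AlphaFold2 dimer inter-PAE exceeded 15.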
For “SAGGSAKVVEKDGKLVIELEVPPDMSEEELKKLAEELAKLLPPGAKIEVKYDKETKRVVIVVELKDSAGGSA [r15_210_TrROS_Hall]”, the “folding stability dG unfold” value was 1.64 ± 0.12 kcal/mol. For “SKKKVTININITPGDPEQMEENVRWAIKEAAENDPDKEVTITIHFPPGHPEWMRWIKELFTKKGIPITIHSA [r9_1202_TrROS]”, the “folding stability dG unfold” value was 2.88 ± 0.042 kcal/mol. For “SAGGSAGGSAETVTITLTVPPGASVEEILAALKAKYPDITSVSVERREDGYLKVTVTVRLDSAGGSAGGSAG [r3_371_TrROS_Hall]”, the “folding stability dG unfold” value was 5.28 ± 0.47 kcal/mol. In the case of “SEAEIKIKEVDENGYLVLEIKVPKEEVEKLREKLKELFPNAEIVEVKYDEETGEVTIIVRLPDGKLYEFKSA [r9_1164_TrROS_Hall]”, the “folding stability dG unfold” value is reported as 1.05 ± 0.076 kcal/mol. For “KTVHIPINGMPLDEMLDMARDALREDPDEGKTITIWVPGNPEWLENLGFDKIEPYKDPERPYMRIKFKVPPS [r1_467_TrROS]”, the “folding stability dG unfold” value was 0.298 ± 0.17 kcal/mol. In the case of “SAGGSAGGSKEEIRKRIAERLRELIPDAKITSIEFDEKTKKITITVDSPEVREALEKLPGIKPSAGGSAGGS [r12_623_TrROS_Hall]”, the “folding stability dG unfold” value is reported as 1.49 ± 0.037 kcal/mol. In the case of “SLIEALRAALEAGADEVTLRIVMPEEEAEELEKALEDLGFEIVSRERVEVDGRRYLVMEIRLRAPPPEEPSA [r9_498_TrROS_Hall]”, the “folding stability dG unfold” value is reported as 3.92 ± 0.095 kcal/mol. In the case of “SAMTLTLEFENLKDLTEEEIEEALKEAGLPGVKILGIKKTSEKWTITIAYDSSTPKEKIEAAIKKAVAESAG [r14_657_JUSTAS]”, the “folding stability dG unfold” value is reported as 5.03 ± 0.35 kcal/mol. In the case of “SAGGSAKRKVEIEIYISREELEEAKKNGKEPTAEAQKQIHRIAKRAREEGMDTVEIKIIPPGQPIPSAGGSA [r15_304_TrROS]”, the “folding stability dG unfold” value is reported as -0.0963 ± 0.34 kcal/mol. With “SAGGKITAFVLVELPDGSVVERTYEFERLDDLLAFLEADPGPKLADLEIIPPEGSDDIIIPLVARVEPSAGG [r13_796_TrMRF]” the “folding stability dG unfold” value was 0.883 ± 0.041 kcal/mol. For “SAGGSAGGAEVVKVDPKPAGVTTVLERYPDGTLRLLKETEENGKLTVSEVETIPVPDISKPPLLSAGGSAGG [r6_836_JUSTAS]”, the “folding stability dG unfold” value was -0.198 ± 0.075 kcal/mol.

Experiment: folding stability dG unfold from chymotrypsin proteolysis; higher = more stable
In short: as §1
For “SAGGSAGGSGSMEFTIDDEDLRIEIKFLPGGKVEITIWDPTNNVPLKTIETEPEEIEEVIEKLSAGGSAGGS [r20_129_JUSTAS]”, the “folding stability dG unfold” value was 2.05 ± 0.048 kcal/mol. For “SAGGSAGGSMKYYKTKDGKIVKAPPIETVKLKLKLEINGKKIEIEIEMSKEEIDKLLKELEKKSAGGSAGGS [r20_148_TrROS_Hall]”, the “folding stability dG unfold” value was 1.27 ± 0.17 kcal/mol. In the case of “SAGGSAGGSAGGNPPDWKPVGEEEFPIPNPNGMQIKISVWTIRAPDDGKSASFIDIEMYPSAGGSAGGSAGG [r7_546_TrROS]”, the “folding stability dG unfold” value is reported as 1.87 ± 0.072 kcal/mol. With “SAGGSAGGSAGVIVTPEGDRIVTYDPNTGSVTVTPLDAAGNPLTTTVVAPNGPVVTVTELSAGGSAGGSAGG [r17_385_JUSTAS]” the “folding stability dG unfold” value was 0.871 ± 0.018 kcal/mol. For “SAGGSAGGSAGMPIEKALEQADKNGRPVQIRVPNGRDIYITVKYKNGKYKIEIMPAEEIKSAGGSAGGSAGG [r17_463_TrROS]”, the “folding stability dG unfold” value was 1.89 ± 0.085 kcal/mol. With “MEEEEKKKAETPEIPEEVAREKALEVARELGLEEIEEIEVLSASPEGYVTVRITLPTGGEVEITIPISELES [r1_435_JUSTAS]” the “folding stability dG unfold” value was 2.76 ± 0.08 kcal/mol. For “SAGGSAGGSAGGLTFRLPDGTRVRVRVELNEDGELRITVEVEPLPPPPPKVEFYSEEELKSAGGSAGGSAGG [r7_660_TrROS_Hall]”, the “folding stability dG unfold” value was 3.06 ± 0.08 kcal/mol. For “SAGGSSVSSVTLLSSETYTEGEKTFKRTTYLVPLPDGTTAIVTTEETTPPENPPEVEVSSSTTPLPGSAGGS [r16_121_JUSTAS]”, the “folding stability dG unfold” value was 1.78 ± 0.093 kcal/mol. In the case of “SAGFYFRITEITVNPDAGKLTIRNPNGQEQEIPPGGKISIKMRFYRFNDNGGKPETFEMEHTIPIPPGDSAG [r14_366_TrROS]”, the “folding stability dG unfold” value is reported as 3.43 ± 0.085 kcal/mol. With “SAGGAPVTVREEELPENSKLITIEYPDGLTLEVLEYPDKVLVREWDTATGKELSSRTLTHEELEKLLSAGGS [r8_476_JUSTAS]” the “folding stability dG unfold” value was 2.41 ± 0.034 kcal/mol. In the case of “SAGGSMDLRVVVVGEDGKVLELPAGEEVSLPDVVAFFSELGDFEVEAHPESGTLTIRVPKGVLEEASAGGSA [r2_164_TrMRF]”, the “folding stability dG unfold” value is reported as 0.804 ± 0.042 kcal/mol. With “SAGMKTYTITVPASEAEEAAEKAAEEIKKELGLPDSDTVEVTVTSYDPKTGTVTITITVTRPLPGGLSLSAG [r5_537_JUSTAS]” the “folding stability dG unfold” value was 1.76 ± 0.084 kcal/mol. In the case of “SMKIKIEKVEDGYYKIKIYDKKTKKEYTIIVPKNMKPGQVELVNRNGKKITMTLEEIKKLLPPGAEVEIVSA [r9_250_TrROS_Hall]”, the “folding stability dG unfold” value is reported as 2.14 ± 0.051 kcal/mol. For “SAGGSMIEEAIEEALKKGLEKVEIEVEVEVNGKIYRVKMEIVKVEEGKVEIKIEVEEIDPETGKLISAGGSA [r2_420_TrROS_Hall]”, the “folding stability dG unfold” value was 3.92 ± 0.15 kcal/mol. In the case of “SAGASPGVRLTERSEEVIEVEPGEKEKLKEEIKKSEKKYPGGLTEKVEYEVDPNSNKVTITITTTTGLSAGG [r19_45_JUSTAS]”, the “folding stability dG unfold” value is reported as 0.664 ± 0.084 kcal/mol. With “SAGGSAGGPIDLDDIKIEEIEHERNPNGMMYHEVTIRFPGGKIPVWFHPNMSLDNAVDMLRAFISAGGSAGG [r6_233_TrROS]” the “folding stability dG unfold” value was 0.814 ± 0.11 kcal/mol. For “SAGRKIPIMFTWPNGDPERMEEIAIEFANYLQPNGLPNVTIKIERKPVKDPENGKRRYVYMVTIEVQPPSAG [r5_49_TrROS]”, the “folding stability dG unfold” value was 2.89 ± 0.089 kcal/mol. For “SAGGSAGGSAGMVITLPNGEKVEITFDKENKKITITFPDGKKVEIEIEGMSLEEILKALKSAGGSAGGSAGG [r11_729_TrROS_Hall]”, the “folding stability dG unfold” value was 3.22 ± 0.075 kcal/mol. For “SKNKVEITIPMPYSQAREIARQLGLPPEKFKDPKDLVDWLKDLFPKDVKIRIQPMKPVTEEERRARQNGKSA [r9_74_TrROS]”, the “folding stability dG unfold” value was 1.34 ± 0.076 kcal/mol. For “SAGGSAGGMKVIEIDLPDGSKLKIVIYKDGTLPAYLPEGNKVIVLEIDKNGKIKSVKVFDAKDISAGGSAGG [r6_81_TrMRF]”, the “folding stability dG unfold” value was 3.52 ± 0.072 kcal/mol. With “SAGGSAGGSGGKPLLIFTAMNGPEAEELVKKLLEEGGAGPIVAVVIPAPKDDPLFKEFFEKLKSAGGSAGGS [r12_649_TrMRF]” the “folding stability dG unfold” value was 1.47 ± 0.053 kcal/mol.
